These results are taken from patent US20060233806A1 (JAPAN SCIENCE AND TECHNOLOGY AGENCY, published 2006).

For the assay, the target named is T1, mouse integrin αvβ3 on NIH3T3 cells (mouse, UniProt P43406 31-1044; O54890 26-787).
T1 construct: whole, on cells; Presented on NIH3T3 transformants; also called αvβ3 integrin; 3T3/αvβ3
The experiment in a line: cell adhesion assay on PS-coated wells pretreated with D89E. As for the experimental part: Peroxidase activity was detected using a peroxidase-detecting kit (Sumitomo Bakelite). To assay the ability of MFG-E8 to link the cells to phospholipids, MFG-E8 was bound to microtiter plates coated with phospholipids as described above. In tyrode buffer containing the cells (4×10⁴) (5 mM Hepes-NaOH buffer [pH 7.4], 135 mM NaCl, 5.4 mM KCl, 1.0 mM MgCl₂, 10 mM glucose, and 10 mg/ml BSA) was added to each well, and incubated at room temperature for 1 hour. The cells that had adhered to the plates were quantified by a CyQUANT Cell Proliferation Assay kit (Molecular Probes) using a fluorescent microplate reader (BioLumin 960, Molecular Dynamics) set at excitation wavelength of 485 nm and emission wavelength of 520 nm.
Therefore, the possibility that MFG-E8-L might bind to integrin-expressing cells after said cells are bound to phospholipids was investigated. Microtiter wells coated with PS or PE were successively incubated with three different concentrations (0.1, 1.0 and 2.0 μg/ml) of MFG-E8-L or D89E, and with NIH3T3 (3T3/WT) or αᵥβ₃ integrin-expressing transformants (3T3/αᵥβ₃), and subjected to cell adhesion assay. The number of cells attached to the wells was quantified as described in the methods described in Example A-6. […] D89E mutant was not capable of intermediating the adhering of NIH3T3 cells to the wells coated with PS. […]

T1 sequence (P43406 31-1044, chain 1 of 2): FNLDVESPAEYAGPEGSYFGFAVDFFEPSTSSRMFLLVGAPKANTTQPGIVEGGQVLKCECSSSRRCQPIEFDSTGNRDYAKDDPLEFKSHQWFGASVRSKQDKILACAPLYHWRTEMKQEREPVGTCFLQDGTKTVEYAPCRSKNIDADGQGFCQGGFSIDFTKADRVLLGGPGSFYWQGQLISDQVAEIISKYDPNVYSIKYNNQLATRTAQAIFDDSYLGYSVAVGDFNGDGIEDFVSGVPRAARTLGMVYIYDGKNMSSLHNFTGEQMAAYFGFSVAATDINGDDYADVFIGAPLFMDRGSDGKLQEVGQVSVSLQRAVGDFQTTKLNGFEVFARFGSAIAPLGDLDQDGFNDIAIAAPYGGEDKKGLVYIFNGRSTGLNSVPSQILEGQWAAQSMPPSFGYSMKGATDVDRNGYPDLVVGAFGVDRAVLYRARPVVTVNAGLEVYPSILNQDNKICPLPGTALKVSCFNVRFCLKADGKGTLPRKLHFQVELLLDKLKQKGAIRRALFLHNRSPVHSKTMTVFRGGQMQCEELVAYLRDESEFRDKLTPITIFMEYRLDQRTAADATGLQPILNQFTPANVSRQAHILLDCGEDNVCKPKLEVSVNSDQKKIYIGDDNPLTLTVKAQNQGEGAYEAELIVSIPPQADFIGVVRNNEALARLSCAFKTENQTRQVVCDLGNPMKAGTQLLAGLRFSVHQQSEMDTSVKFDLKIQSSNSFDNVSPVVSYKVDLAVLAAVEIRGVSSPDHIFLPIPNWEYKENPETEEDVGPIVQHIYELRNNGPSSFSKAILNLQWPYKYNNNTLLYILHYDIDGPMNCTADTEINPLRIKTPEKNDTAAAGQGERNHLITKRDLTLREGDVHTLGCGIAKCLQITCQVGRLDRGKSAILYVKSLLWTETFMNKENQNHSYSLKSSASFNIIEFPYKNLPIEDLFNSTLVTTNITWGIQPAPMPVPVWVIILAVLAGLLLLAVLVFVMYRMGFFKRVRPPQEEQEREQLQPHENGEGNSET
T1 sequence (O54890 26-787, chain 2 of 2): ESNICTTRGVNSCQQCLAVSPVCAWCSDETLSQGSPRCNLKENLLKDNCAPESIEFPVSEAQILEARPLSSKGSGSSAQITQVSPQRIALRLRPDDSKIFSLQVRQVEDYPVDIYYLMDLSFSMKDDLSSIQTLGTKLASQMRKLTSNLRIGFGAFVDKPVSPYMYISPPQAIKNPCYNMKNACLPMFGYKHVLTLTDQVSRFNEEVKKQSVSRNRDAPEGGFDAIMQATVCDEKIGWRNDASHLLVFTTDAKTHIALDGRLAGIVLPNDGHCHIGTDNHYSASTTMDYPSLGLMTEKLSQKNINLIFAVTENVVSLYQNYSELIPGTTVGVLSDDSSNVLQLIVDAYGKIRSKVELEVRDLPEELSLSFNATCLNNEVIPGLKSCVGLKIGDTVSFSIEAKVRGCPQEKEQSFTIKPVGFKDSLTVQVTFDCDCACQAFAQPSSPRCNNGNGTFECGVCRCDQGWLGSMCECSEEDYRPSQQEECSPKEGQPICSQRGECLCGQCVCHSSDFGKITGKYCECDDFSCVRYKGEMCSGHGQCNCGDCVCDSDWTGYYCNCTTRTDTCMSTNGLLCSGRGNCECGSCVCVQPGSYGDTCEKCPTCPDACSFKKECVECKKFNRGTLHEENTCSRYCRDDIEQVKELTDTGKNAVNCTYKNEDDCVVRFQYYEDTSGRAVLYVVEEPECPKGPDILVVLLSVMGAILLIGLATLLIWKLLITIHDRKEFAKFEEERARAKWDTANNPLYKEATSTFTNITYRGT

B1: D89E mutant of mouse MFG-E8-L (ligand)
chain: ASGDFCDSSLCLNGGTCLTGQDNDIYCLCPEGFTGLVCNETERGPCSPNPCYNDAKCLVTLDTQRGEIFTEYICQCPVGYSGIHCETETNYYNLDGEYMFTTAVPNTAVPTPAPTPDLSNNLASRCSTQLGMEGGAIADSQISASSVYMGFMGLQRWGPELARLYRTGIVNAWTASNYDSKPWIQVNLLRKMRVSGVMTQGASRAGRAEYLKTFKVAYSLDGRKFEFIQDESGGDKEFLGNLDNNSLKVNMFNPTLEAQYIRLYPVSCHRGCTLRFELLGCELHGCSEPLGLKNNTIPDSQMSASSSYKTWNLRAFGWYPHLGRLDNQGKINAWTAQSNSAKEWLQVDLGTQRQVTGIITQGARDFGHIQYVASYKVAHSDDGVQWTVYEEQGSSKVFQGNLDNNSHKKNIFEKPFMARYVRVLPVSWHNRITLRLELLGC
notes: Point mutation in the RGD motif of the second EGF domain; Expressed in human 293T cells; also called D89 mutant; not shown: FLAG marker peptide at the C-terminus (derivatives were detected with anti-FLAG)
B1: the binding result is “no binding (tested: 0.1, 1.0 and 2.0 µg/ml)”.
